pKd: −log10 of the molar value.

Results on one substance are retold here after PMC12744356.

The target of this assay is EsxX glycine zipper peptide (EsxX 448-476), N-terminal biotin (Staphylococcus aureus (ST398)). Put plainly: BLI; biotinylated peptide captured on streptavidin SAX biosensors (~1.0 nm); ExiABhis 50 uM to 1.6 uM in 2-fold dilutions in 10X Kinetics Buffer; association 180 s at 25 C; 1:1 kinetic model and steady-state model. On the technique in general: BLI is a label-free optical method that tracks binding on a fibre tip over time.

The term pKd denotes −log10 of the Kd, conventionally taken in molar units. Low readings indicate a high Kd, high ones a low Kd. As usually defined, the stoichiometry N is the number of molecules, sites or subunits per partner or assembly. In the case of ExiA-ExiBhis dimer (complex), the negative-log Kd (pKd) is 4.66 and the stoichiometry N was found to be 1.
